Measured values as given in IntAct's records for PubMed 16316992.

biological target: magi3_human MAGI3 (UniProt Q5TCQ9)
Sequence (Q5TCQ9 whole entry): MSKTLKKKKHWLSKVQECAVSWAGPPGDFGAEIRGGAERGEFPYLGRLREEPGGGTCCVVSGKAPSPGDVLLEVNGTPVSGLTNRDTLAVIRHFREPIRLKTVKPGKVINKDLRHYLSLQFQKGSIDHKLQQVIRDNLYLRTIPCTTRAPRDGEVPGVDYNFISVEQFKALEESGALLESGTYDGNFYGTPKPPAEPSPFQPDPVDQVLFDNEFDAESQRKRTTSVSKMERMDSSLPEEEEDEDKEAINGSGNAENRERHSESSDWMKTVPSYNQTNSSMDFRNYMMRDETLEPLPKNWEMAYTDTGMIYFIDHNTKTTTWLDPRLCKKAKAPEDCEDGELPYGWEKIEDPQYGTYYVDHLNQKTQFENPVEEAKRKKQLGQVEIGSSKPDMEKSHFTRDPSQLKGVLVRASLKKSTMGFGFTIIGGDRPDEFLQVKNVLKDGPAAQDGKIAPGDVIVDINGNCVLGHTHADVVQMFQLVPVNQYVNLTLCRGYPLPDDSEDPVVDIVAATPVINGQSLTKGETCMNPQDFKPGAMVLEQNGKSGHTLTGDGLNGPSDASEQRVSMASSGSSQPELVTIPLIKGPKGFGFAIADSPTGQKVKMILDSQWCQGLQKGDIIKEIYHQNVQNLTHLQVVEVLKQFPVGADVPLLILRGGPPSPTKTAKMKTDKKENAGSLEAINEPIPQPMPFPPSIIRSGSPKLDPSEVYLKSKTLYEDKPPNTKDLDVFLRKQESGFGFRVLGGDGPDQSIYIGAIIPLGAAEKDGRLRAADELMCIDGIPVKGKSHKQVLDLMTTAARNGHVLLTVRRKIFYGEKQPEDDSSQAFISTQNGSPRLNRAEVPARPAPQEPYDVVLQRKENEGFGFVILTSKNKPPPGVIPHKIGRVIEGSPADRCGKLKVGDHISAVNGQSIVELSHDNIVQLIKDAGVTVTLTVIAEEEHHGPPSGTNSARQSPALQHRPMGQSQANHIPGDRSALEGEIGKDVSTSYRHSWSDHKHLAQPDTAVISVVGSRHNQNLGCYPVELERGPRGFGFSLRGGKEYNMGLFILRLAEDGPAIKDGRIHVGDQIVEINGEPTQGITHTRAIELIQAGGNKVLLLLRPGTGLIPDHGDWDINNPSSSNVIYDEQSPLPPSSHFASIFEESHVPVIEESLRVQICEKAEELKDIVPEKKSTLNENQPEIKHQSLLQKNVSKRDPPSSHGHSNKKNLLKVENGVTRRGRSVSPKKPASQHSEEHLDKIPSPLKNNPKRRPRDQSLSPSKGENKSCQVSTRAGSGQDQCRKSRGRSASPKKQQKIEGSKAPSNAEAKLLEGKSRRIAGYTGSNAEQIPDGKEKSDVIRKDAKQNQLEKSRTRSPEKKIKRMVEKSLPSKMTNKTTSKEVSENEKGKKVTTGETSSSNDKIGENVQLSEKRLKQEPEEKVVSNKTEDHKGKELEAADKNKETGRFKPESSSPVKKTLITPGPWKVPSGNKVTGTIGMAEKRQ

Beta-1 adrenergic receptor (Homo sapiens), P08588 V477A, sequence (P08588 whole entry V477A): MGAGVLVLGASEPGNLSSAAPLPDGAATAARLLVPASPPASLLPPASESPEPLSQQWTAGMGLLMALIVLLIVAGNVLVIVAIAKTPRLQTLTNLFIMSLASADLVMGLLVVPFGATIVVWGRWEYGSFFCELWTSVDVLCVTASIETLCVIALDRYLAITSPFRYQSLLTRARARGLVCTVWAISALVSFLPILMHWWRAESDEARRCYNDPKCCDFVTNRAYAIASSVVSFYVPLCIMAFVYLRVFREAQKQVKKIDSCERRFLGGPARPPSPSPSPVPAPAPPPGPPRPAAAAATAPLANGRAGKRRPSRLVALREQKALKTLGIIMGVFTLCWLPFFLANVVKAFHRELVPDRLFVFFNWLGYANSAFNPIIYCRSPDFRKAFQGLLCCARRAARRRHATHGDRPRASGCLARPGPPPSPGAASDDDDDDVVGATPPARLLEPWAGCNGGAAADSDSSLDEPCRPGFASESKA
Beta-1 adrenergic receptor (Homo sapiens), P08588 K476R, sequence (P08588 whole entry K476R): as the sequence (P08588 whole entry V477A) above, with K476R, A477V counted along it
Beta-1 adrenergic receptor (Homo sapiens), P08588 V477I, sequence (P08588 whole entry V477I): as the sequence (P08588 whole entry V477A) above, with A477I counted along it
Beta-1 adrenergic receptor (Homo sapiens), P08588 V477M, sequence (P08588 whole entry V477M): as the sequence (P08588 whole entry V477A) above, with A477M counted along it
Beta-1 adrenergic receptor (Homo sapiens), P08588 E474T, sequence (P08588 whole entry E474T): as the sequence (P08588 whole entry V477A) above, with E474T, A477V counted along it
Beta-1 adrenergic receptor (Homo sapiens), P08588 E474A, sequence (P08588 whole entry E474A): as the sequence (P08588 whole entry V477A) above, with E474A, A477V counted along it
Beta-1 adrenergic receptor (Homo sapiens), P08588 V477L, sequence (P08588 whole entry V477L): as the sequence (P08588 whole entry V477A) above, with A477L counted along it
Beta-1 adrenergic receptor (Homo sapiens), P08588 S475A, sequence (P08588 whole entry S475A): as the sequence (P08588 whole entry V477A) above, with S475A, A477V counted along it

Effect of a mutation on the interaction, decreasing interaction:
Beta-1 adrenergic receptor (Homo sapiens), P08588 V477A
Beta-1 adrenergic receptor (Homo sapiens), P08588 E474T
Beta-1 adrenergic receptor (Homo sapiens), P08588 E474A
Beta-1 adrenergic receptor (Homo sapiens), P08588 S475A
Beta-1 adrenergic receptor (Homo sapiens), P08588 K476R

biological target: magi3_human MAGI3 (UniProt Q5TCQ9); remark: another data set of the same source

Effect of a mutation on the interaction, decreasing interaction:
Beta-1 adrenergic receptor (Homo sapiens), P08588 V477L
Beta-1 adrenergic receptor (Homo sapiens), P08588 V477I
Beta-1 adrenergic receptor (Homo sapiens), P08588 V477M
